From CN111956606A (JIANGSU QUANXIN BIOMEDICAL CO LTD, dated 2020) come the findings set out here.

Series [1] concerns the target T1, 人白介素23(Human interleukin 23，hIL-23) (human, UniProt Q9NPF7 20-189; P29460 23-328).
T1 sequence 1: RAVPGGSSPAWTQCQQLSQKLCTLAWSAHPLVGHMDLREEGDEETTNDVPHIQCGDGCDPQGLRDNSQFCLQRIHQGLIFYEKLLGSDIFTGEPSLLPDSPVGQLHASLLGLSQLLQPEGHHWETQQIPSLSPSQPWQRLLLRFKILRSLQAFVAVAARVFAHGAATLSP
T1 sequence 2: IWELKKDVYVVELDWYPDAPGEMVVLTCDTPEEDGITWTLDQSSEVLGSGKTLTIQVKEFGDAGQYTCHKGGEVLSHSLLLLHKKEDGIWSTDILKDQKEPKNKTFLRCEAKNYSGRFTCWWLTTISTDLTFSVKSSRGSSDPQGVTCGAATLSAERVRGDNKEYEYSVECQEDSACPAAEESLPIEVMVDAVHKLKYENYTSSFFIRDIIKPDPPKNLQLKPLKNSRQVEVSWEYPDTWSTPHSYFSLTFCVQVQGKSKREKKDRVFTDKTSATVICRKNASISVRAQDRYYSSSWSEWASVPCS
Description: cell-based or functional assay.

Series [2] addresses T1, 人白介素23(Human interleukin 23，hIL-23). Description: SPR, Biacore T200, antibody captured on Protein A chip, IL-23 as analyte, 25℃, 1:1 model. In general terms: In SPR one partner is held on a chip, and binding of the other changes the refractive index at the surface.

B1: Risankizumab (antibody, V domains shown)
VH: QVQLVQSGAEVKKPGSSVKVSCKASGYTFTDQTIHWMRQAPGQGLEWIGYIYPRDDSPKYNENFKGKVTITADKSTSTAYMELSSLRSEDTAVYYCAIPDRSGYAWFIYWGQGTLVTVSS
VL: DIQMTQSPSSLSASVGDRVTITCKASRDVAIAVAWYQQKPGKVPKLLIYWASTRHTGVPSRFSGSGSRTDFTLTISSLQPEDVADYFCHQYSSYPFTFGSGTKLEIKR
As for B1, in series [1], the “抑制IL-23诱导的HEK Blue TM IL-23细胞中STAT3磷酸化活性 IC50” value is 0.00351 µg/mL, the “抑制IL-23诱导的人NK细胞释放IFN-γ活性 IC50” value turned out to be 0.0111 µg/mL and the “抑制IL-23诱导的小鼠脾脏细胞释放IL-17A活性 IC50” value is 0.00843 µg/mL. In addition, in series [2], the dissociation constant Kd came out at 0.052 nM, the koff was determined as 3.7e-05 s⁻¹ and the kon is 706000 M⁻¹ s⁻¹.

B2: 抗人白介素23单克隆抗体QX004N(HZD90-32) (antibody, human IgG1, kappa, V domains shown)
VH: EVQLVESGGGLVQPGGSLRLSCAASGFSLSNHEMSWVRQAPGKGLEWIGIITTSDTTYYATWAKGRFTISRDNSKNTLYLQMNSLRAEDTAVYYCARVDIVLLSVTSRIWGQGTLVTVSS
VL: DVVMTQSPSSLSASVGDRVTITCQASQSVSTYLSWYQQKPGKAPKLLIYGASNLESGVPSRFSGSGSGTDFTLTISSLQPEDFATYYCQSGYVFAGLTFGGGTKVEIKR
With B2, in series [1], the “抑制IL-23诱导的HEK Blue TM IL-23细胞中STAT3磷酸化活性 IC50” value came out at 0.00321 µg/mL, the “抑制IL-23诱导的人NK细胞释放IFN-γ活性 IC50” value stood at 0.0104 µg/mL and the “抑制IL-23诱导的小鼠脾脏细胞释放IL-17A活性 IC50” value is 0.0117 µg/mL. In series [2], this molecule displayed a Kd of 0.101 nM, a koff of 3.5e-05 s⁻¹ and a kon of 366000 M⁻¹ s⁻¹.

B3: Guselkumab (antibody, V domains shown)
VH: EVQLVQSGAEVKKPGESLKISCKGSGYSFSNYWIGWVRQMPGKGLEWMGIIDPSNSYTRYSPSFQGQVTISADKSISTAYLQWSSLKASDTAMYYCARWYYKPFDVWGQGTLVTVSS
VL: QSVLTQPPSVSGAPGQRVTISCTGSSSNIGSGYDVHWYQQLPGTAPKLLIYGNSKRPSGVPDRFSGSKSGTSASLAITGLQSEDEADYYCASWTDGLSLVVFGGGTKLTVLG
As for B3, in series [1], the “抑制IL-23诱导的人NK细胞释放IFN-γ活性 IC50” value turned out to be 0.0168 µg/mL and the “抑制IL-23诱导的小鼠脾脏细胞释放IL-17A活性 IC50” value was 0.0135 µg/mL. Further, the affinity in series [2], expressed as Kd, was 0.063 nM.

What is called Kd is the free concentration of one partner at which half of the binding sites on the other are occupied at equilibrium, for simple one-to-one binding. A higher Kd goes with lower affinity. For orientation: koff means a measure of how fast the partners let go of each other. As a reminder, the kon is the rate constant with which the complex forms. Low values mean slower complex formation, high ones faster complex formation.
